Reference: article PMC5995542
Each block holds one substance with its values, some of them ahead of it.

What was measured:
[1] = target: E. coli 70S ribosome termination complex labelled with Cy3 at protein L11 (PreHC, PostHC* or PostHC) (E. coli) (UniProt P0A7J7); experiment: FRET or BRET; smFRET (TIRF) between factor-Cy5 (10 nM, in solution) and L11-Cy3 on PreHC or PostHC (peptide released by puromycin or by the factor) immobilised by mRNA-biotin:neutravidin; no RF3; imaging buffer pH 7.5, 15 mM MgCl2, 22°C; koff from residence times, limited by photobleaching (0.07–0.19 s^-1)
[2] = target: E. coli 70S ribosome termination complex labelled with Cy3 at protein L11 (PreHC, PostHC* or PostHC) (E. coli) (UniProt P0A7J7); experiment: FRET or BRET; smFRET (TIRF), RF1(GAQ)-Cy5 (10 nM) on immobilised PostHC* (puromycin) labelled at L11-Cy3, with excess unlabelled RF3 (1 µM) and GTP (1 mM); 22°C
[3] = target: E. coli 70S ribosome termination complex labelled with Cy3 at protein L11 (PreHC, PostHC* or PostHC) (E. coli) (UniProt P0A7J7); experiment: FRET or BRET; smFRET (TIRF), RF1(GAQ)-Cy5 (10 nM) on immobilised PreHC labelled at L11-Cy3, with excess unlabelled RF3 (1 µM) and GTP (1 mM); 22°C
[4] = target: E. coli 70S ribosome termination complex labelled with Cy3 at protein L11 (PreHC, PostHC* or PostHC) (E. coli) (UniProt P0A7J7); experiment: FRET or BRET; smFRET (TIRF), RF1-Cy5 (10 nM) on immobilised L11-Cy3 PreHC converted in situ to PostHC by RF1, with excess unlabelled RF3 (1 µM) and GTP (1 mM); 22°C
[5] = target: PostHC, post-hydrolysis termination complex: E. coli 70S ribosome labelled with Cy3 at protein L11, deacylated tRNAfMet in the P site and the stop codon UAA in the A site (E. coli) (UniProt P0A7J7); experiment: FRET or BRET; single-molecule FRET by TIRF, residence time: RF3-Cy5 (10 nM) with GDPNP (1 mM) on L11-Cy3 PostHC immobilised through mRNA-biotin:neutravidin; with saturating unlabelled RF1 (1 µM)
[6] = target: PostHC, post-hydrolysis termination complex: E. coli 70S ribosome labelled with Cy3 at protein L11, deacylated tRNAfMet in the P site and the stop codon UAA in the A site (E. coli) (UniProt P0A7J7); experiment: FRET or BRET; single-molecule FRET by TIRF, residence time: RF2-Cy5 (10 nM) on L11-Cy3 PostHC (peptide released by RF2) immobilised through mRNA-biotin:neutravidin; no RF3; imaging buffer pH 7.5, 15 mM MgCl2, 22°C

koff [1]: < 0.2 s⁻¹
koff [2]: 1.3 s⁻¹
koff of the small fraction (8%) of complexes that release RF1(GAQ) slowly [2]: 0.12 s⁻¹
koff [3]: < 0.3 s⁻¹
Substance: RF1(GAQ)-Cy5 (catalytically impaired RF1(G234A), Cy5-labelled) (from UniProt P0A7I0 1-360) (natural protein)

koff [1]: < 0.2 s⁻¹
koff [4]: 1.2 s⁻¹
Substance: RF1-Cy5 (release factor RF1, single-cysteine variant RF1(S167C) labelled with Cy5) (from UniProt P0A7I0 1-360) (natural protein)

koff [5]: 2.5 s⁻¹
Substance: RF3-Cy5, single-cysteine release factor RF3(L233C) labelled with Cy5 (from UniProt P0A7I4 1-529) (natural protein)

koff [6]: 0.84 s⁻¹
Substance: RF2-Cy5, single-cysteine release factor RF2(C273) labelled with Cy5 (from UniProt P07012 1-365) (natural protein)
